{"source": "patent US20110212853A1", "about": "“NOVEL DIAGNOSTIC METHOD” (PROBIODRUG AG, priority 2010, published 2011)", "key": {"[1]": {"tested_on": "DP4 or a DP4-like activity in human serum", "assay": "Degradation of Gln1-MCP-1 in human serum in presence of DP4 inhibitor", "type": "biochemical", "conditions": "9.6 μM inhibitor, 24 h, FIG. 7C", "procedure": "(§1) For cyclization of the N-terminal glutamine residue into pyroglutamate, MCP-1 was incubated with recombinant human QC for 3 h prior to assay start. In addition, Gln^1-MCP-1 was incubated in human serum in the presence of 9.6 μM DP4 Inhibitor Isoleucyl-Thiazolidide (P32/98) for 24 h (C). The cleavage products were analyzed after 0 min, 10 min, 30 min, 1 h, 2 h, 3 h 5 h and 7 h for Gln^1-MCP-1, 0 min, 30 min, 1 h, 2 h, 3 h 5 h, 7 h and 24 h for pGlu^1-MCP-1 and 0 min, 1 h, 2 h, 3 h, 5 h, 7 h and 24 h for Gln^1-MCP-1 in combination with Isoleucyl-Thiazolidide using Maldi-TOF mass spectrometry.\n(§2) Human recombinant MCP-1 carrying an N-terminal glutaminyl residue (Peprotech) was dissolved in 25 mM Tris/HCl, pH 7.6, in a concentration of 100 μg/ml. MCP-1 was either pre-incubated with recombinant human QC (0.006 mg/ml) for 3 h at 30° C. and subsequently incubated with human serum at 30° C. or incubated with human serum without addition of QC. The cleavage products were analyzed using Maldi-TOF mass spectrometry after 0 min, 10 min, 30 min, 1 h, 2 h, 3 h 5 h and 7 h for Gln^1-MCP-1 and 0 min, 30 min, 1 h, 2 h, 3 h 5 h, 7 h and 24 h for pGlu^1-MCP-1."}, "[2]": {"tested_on": "human THP-1 monocytes", "assay": "TransWell chemotaxis assay", "type": "cell-based", "conditions": "for MCP-1 concentrations needed to elicit the maximum response: after incubation with human DP4, with (pGlu^1) or without (Gln^1) QC pre-incubation, FIG. 12; for influence of pGlu-formation at the N-terminus on chemotactic potency: compared to the respective glutamine-precursors, FIG. 11; for chemotactic potency of N-truncated DP4 cleavage products: truncation by 2 amino acids, FIG. 13", "procedure": "The chemotaxis assay was performed using 24 well TransWell plates with a pore size of 5 μm (Corning). THP-1 cells were suspended in RPMI1640 in a concentration of 1*10^6 cells/100 μl and applied in 100 μl aliquots to the upper chamber. Cells were allowed to migrate towards the chemoattractant for 2 h at 37° C. Subsequently, cells from the upper chamber were discarded and the lower chamber was mixed with 50 μl 70 mM EDTA in PBS and incubated for 15 min at 37° C. to release cells attached to the membrane. Afterwards, cells migrated to the lower chamber were counted using a cell counter system (Schärfe System). The chemotactic index was calculated by dividing cells migrated to the stimulus from cells migrated to the negative control.\nMCP-1 starting with glutamine 1 (Gln^1-MCP-1) (Peprotech) was incubated with recombinant human QC to generate pGlu^1-MCP-1, or with human recombinant DP4 to generate Asp^3-MCP-1. Concentrations of 1, 5, 10, 50, 100, 500 and 1000 ng/ml of the generated MCP-1 variants were tested using the THP-1 chemotaxis assay (n=3).\nMCP-1 with N-terminal glutamine (Gln^1-MCP-1) (Peprotech) was incubated with recombinant human QC and DP4 (Gln^1-MCP-1+QC+DP4), human recombinant DP4 alone (Gln^1-MCP+DP4) and with recombinant human QC in combination with 10 μM of QC-inhibitor 1-(3-(1H-imidazol-1-yl)propyl)-3-(3,4-dimethoxyphenyl)thiourea hydrochloride and DP4 (Gln^1-MCP-1+QC+QCI+DP4). Concentrations of 1, 5, 10, 50, 100, 500 and 1000 ng/ml of generated MCP-1 variants were tested using chemotaxis assay (n=3).\nConcentrations of 1, 5, 10, 50, 100, 500 and 1000 ng/ml of a particular MCP were tested using chemotaxis assay (n=3).\nFor the generation of the DP4 cleavage product, the respective MCPs were incubated with human recombinant DP4 at a 1:100 dilution for 2 h at 30° C. prior to assay. Concentrations of 1, 5, 10, 50, 100, 500 and 1000 ng/ml of a particular MCP were tested using chemotaxis assay (n=3)."}, "[3]": {"assay": "N-terminal degradation of human MCP-1 in human serum, Maldi-TOF mass spectrometry", "type": "in vitro ADME", "procedure": "as §1\nMatrix-assisted laser desorption/ionization mass spectrometry was carried out using the Voyager De-Pro (Applied Biosystems, Darmstadt) with a linear time of flight analyzer. The instrument was equipped with a 337 nm nitrogen laser, a potential acceleration source and a 1.4 m flight tube. Detector operation was in the positive-ion mode. Samples (5 μl) were mixed with equal volumes of the matrix solution. For matrix solution sinapinic acid was used, prepared by solving 20 mg sinapinic acid (Sigma-Aldrich) in 1 ml acetonitrile/0.1% TFA in water (1/1, v/v). A small volume (≈1 μl) of the matrix-analyte-mixture was transferred to a probe tip.\nas §2"}, "[4]": {"molecular_target": "MCP-1 receptors (Homo sapiens, UniProt P41597)", "sequence (P41597 whole entry)": "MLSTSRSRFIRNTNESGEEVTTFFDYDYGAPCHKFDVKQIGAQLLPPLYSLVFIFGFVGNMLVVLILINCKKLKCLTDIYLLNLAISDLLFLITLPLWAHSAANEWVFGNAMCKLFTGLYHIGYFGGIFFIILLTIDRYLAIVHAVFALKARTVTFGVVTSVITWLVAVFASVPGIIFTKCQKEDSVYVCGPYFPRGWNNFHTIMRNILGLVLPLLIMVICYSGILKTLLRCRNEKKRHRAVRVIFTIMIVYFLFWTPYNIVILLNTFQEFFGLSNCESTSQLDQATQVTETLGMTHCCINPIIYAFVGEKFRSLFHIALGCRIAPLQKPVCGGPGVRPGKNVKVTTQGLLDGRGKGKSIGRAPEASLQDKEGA", "conditions": "cited from earlier work"}, "[5]": {"molecular_target": "recombinant human DP4 (Homo sapiens, UniProt P27487)", "sequence (P27487 whole entry, the tested form may be a part)": "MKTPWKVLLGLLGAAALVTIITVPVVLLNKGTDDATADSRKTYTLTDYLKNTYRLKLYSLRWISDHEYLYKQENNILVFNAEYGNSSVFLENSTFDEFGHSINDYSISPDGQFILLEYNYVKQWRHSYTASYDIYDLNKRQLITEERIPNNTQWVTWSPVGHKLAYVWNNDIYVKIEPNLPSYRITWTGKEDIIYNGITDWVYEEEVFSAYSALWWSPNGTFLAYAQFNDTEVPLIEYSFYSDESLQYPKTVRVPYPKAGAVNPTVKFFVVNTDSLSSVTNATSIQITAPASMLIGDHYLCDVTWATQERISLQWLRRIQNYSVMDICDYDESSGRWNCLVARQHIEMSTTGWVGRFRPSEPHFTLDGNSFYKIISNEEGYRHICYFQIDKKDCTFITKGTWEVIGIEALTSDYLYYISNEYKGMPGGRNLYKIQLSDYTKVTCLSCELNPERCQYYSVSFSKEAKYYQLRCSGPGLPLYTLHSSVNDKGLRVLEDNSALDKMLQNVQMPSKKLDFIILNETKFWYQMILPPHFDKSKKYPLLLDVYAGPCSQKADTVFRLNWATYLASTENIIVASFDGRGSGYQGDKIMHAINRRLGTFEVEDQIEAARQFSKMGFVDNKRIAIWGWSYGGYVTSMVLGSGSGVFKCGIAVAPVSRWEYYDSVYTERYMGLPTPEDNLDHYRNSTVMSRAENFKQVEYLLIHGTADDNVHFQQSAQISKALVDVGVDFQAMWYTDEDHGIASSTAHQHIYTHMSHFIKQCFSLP", "assay": "N-terminal degradation of human MCP-2, MCP-3 and MCP-4 by DP4, Maldi-TOF mass spectrometry", "type": "in vitro ADME", "conditions": "for truncation by DP4 of uncyclized variants starting with N-terminal glutamine: recombinant human DP4, 30° C.; for proteolytic degradation by DP4 with N-terminal pGlu-residue: pre-incubated with recombinant human QC 3 h, then DP4", "procedure": "Resulting DP4 cleavage products were analyzed using Maldi-TOF mass spectrometry after 0 min, 15 min, 30 min, 1 h, 2 h, 4 h and 24 h.\nMCP-3 was either pre-incubated with recombinant human QC (0.0006 mg/ml) for 3 h at 30° C. and subsequently incubated with recombinant human DP4 (0.00012 mg/ml) at 30° C. or incubated with recombinant human DP4 (0.00012 mg/ml) without prior QC application. Resulting DP4 cleavage products were analyzed using Maldi-TOF mass spectrometry after 0 min, 15 min, 30 min, 1 h, 2 h, 4 h and 24 h.\nMCP-4 was either pre-incubated with recombinant human QC (0.0006 mg/ml) for 3 h at 30° C. and subsequently incubated with recombinant human DP4 (0.00006 mg/ml) at 30° C. or incubated with recombinant human DP4 (0.00006 mg/ml) without prior QC application. Resulting DP4 cleavage products were analyzed using Maldi-TOF mass spectrometry after 0 min, 15 min, 30 min, 1 h, 2 h, 4 h and 24 h."}, "[6]": {"conditions": "incubation with human serum without QC pre-incubation, FIG. 7A"}}, "data": [{"molecule": "CCC(C)C(N)C(=O)N1CCSC1", "note": "(stereo not shown) [Isoleucyl-Thiyzolidide, Isoleucyl-Thiazolidide]", "values": [{"measurement": "N-terminal degradation of MCP-1 in serum", "setting": "[1]", "result": "prevents the N-terminal degradation"}]}, {"molecule": "Gln1-MCP-1: Recombinant human MCP-1(1-76) (SEQ ID NO: 1) starting with an N-terminal glutamine (Peprotech)", "values": [{"measurement": "MCP-1 concentrations needed to elicit the maximum response", "setting": "[2]", "result": "500 to 1000", "unit": "ng/mL"}, {"measurement": "final ratio, full-length pGlu1-MCP-1", "setting": "[3]; [6]", "result": "~40", "unit": "%"}, {"measurement": "final ratio, truncated Asp3-MCP-1", "setting": "[3]; [6]", "result": "approx. 60%"}]}, {"molecule": "MCP-1, 1-10: peptide corresponding to MCP-1, 1-10 (QPDAINAPVT; UniProt P13500 24-33, looked up, fragment) [reference compound]", "values": [{"measurement": "receptor-binding activities", "setting": "[4]", "result": "lacked detectable receptor-binding activities"}]}, {"molecule": "MCP-1: monocyte chemotactic protein-1, CCL2; form in the cited binding study not stated", "values": [{"measurement": "Kd", "setting": "[4]", "result": 2.8, "unit": "nM"}]}, {"molecule": "MCP-2: Human recombinant MCP-2 (SEQ ID NO: 11) carrying an N-terminal glutaminyl residue (Peprotech)", "values": [{"measurement": "influence of pGlu-formation at the N-terminus on chemotactic potency", "setting": "[2]", "result": "no influence"}, {"measurement": "chemotactic potency of N-truncated DP4 cleavage products", "setting": "[2]", "result": "partial inactivation"}, {"measurement": "truncation by DP4 of uncyclized variants starting with N-terminal glutamine", "setting": "[5]", "result": "readily truncated"}]}, {"molecule": "MCP-3: Human recombinant MCP-3 (SEQ ID NO: 12) carrying an N-terminal glutaminyl residue (Peprotech)", "values": [{"measurement": "influence of pGlu-formation at the N-terminus on chemotactic potency", "setting": "[2]", "result": "no influence"}, {"measurement": "chemotactic potency of N-truncated DP4 cleavage products", "setting": "[2]", "result": "partial inactivation"}, {"measurement": "proteolytic degradation by DP4 with N-terminal pGlu-residue", "setting": "[5]", "result": "protects"}, {"measurement": "truncation by DP4 of uncyclized variants starting with N-terminal glutamine", "setting": "[5]", "result": "readily truncated"}]}, {"molecule": "MCP-4: Human recombinant MCP-4 (SEQ ID NO: 13) carrying an N-terminal glutaminyl residue (Peprotech)", "values": [{"measurement": "influence of pGlu-formation at the N-terminus on chemotactic potency", "setting": "[2]", "result": "slightly increases"}, {"measurement": "chemotactic potency of N-truncated DP4 cleavage products", "setting": "[2]", "result": "partial inactivation"}, {"measurement": "proteolytic degradation by DP4 with N-terminal pGlu-residue", "setting": "[5]", "result": "protects"}, {"measurement": "truncation by DP4 of uncyclized variants starting with N-terminal glutamine", "setting": "[5]", "result": "readily truncated"}]}, {"molecule": "pGlu1-MCP-1: human MCP-1 with N-terminal pyroglutamic acid, generated by incubation of Gln1-MCP-1 with recombinant human QC", "values": [{"measurement": "MCP-1 concentrations needed to elicit the maximum response", "setting": "[2]", "result": "50 to 100", "unit": "ng/mL"}, {"measurement": "degradation in human serum", "setting": "[3]; pre-incubation with human QC, chosen time-frame (24 h) and dilution of the serum, FIG. 7B", "result": "no degradation"}]}]}
